Consider 3 compounds from US11384119B2, “Compositions and methods for inhibiting CD279 interactions” (priority 2015, dated 2022).

The test system of data set [1] is tumour cell line LL/2. In words: In vivo LL/2 tumour model in C57Bl/6 mice. As to conditions: 200 mg/kg IP for 7 days. The procedure: More particularly, mice strain C57Bl/6 (male, 4-weeks, initial body weight˜20-22 g) were inoculated with tumour cell line LL/2, at S.C. 10^5 per mouse. After 14 days post-implantation, the mice were treated with D-TW or D-TW-Scrambled for 7 days (at 200 mg/kg), via intraperitoneal (IP) injection.

Data set [2] concerns the target T1, PD-1/PD-L1 interaction (Homo sapiens, UniProt Q9NZQ7). In words: IL-2 production by activated Jurkat T cells co-cultured with PD-L1-expressed U87 tumor cells (IL-2 ELISA). Format: cell-based. Also noted: endogenous in cells; host or cells: U87 tumor cells (PD-L1); Jurkat T cells (PD-1). As to conditions: for IL-2 concentration: different peptide concentrations, 37° C. for 48 hours, FIGS. 3A-3C; for blocking of PD-1/PD-L1 interaction (summary of the foregoing assay results): summary of FIGS. 1-3, the combination is compared with a single test peptide treatment. The procedure: In this Example, 5×10^4 Jurkat T cells were activated with […] of PHA and 50 ng/ml of PMA and co-cultured with 3×10^5 PD-L1-expressed U87 tumor cells mixed with different concentrations of WT (FIG. 3A), TF (FIG. 3B), or combined WT and TF (FIG. 3C) peptide at 37° C. for 48 hours. Cell culture supernatants were harvested and IL-2 production from the Jurkat T cells was assessed by IL-2 ELISA. The numbers shown above each bar in FIGS. 3A-3C represent IL-2 concentrations. […] Moreover, as shown in FIGS. 3A-3C, as the concentrations of the test peptides were increased, an increase in IL-2 concentration was observed.
Target sequence in this assay (Q9NZQ7 19-290): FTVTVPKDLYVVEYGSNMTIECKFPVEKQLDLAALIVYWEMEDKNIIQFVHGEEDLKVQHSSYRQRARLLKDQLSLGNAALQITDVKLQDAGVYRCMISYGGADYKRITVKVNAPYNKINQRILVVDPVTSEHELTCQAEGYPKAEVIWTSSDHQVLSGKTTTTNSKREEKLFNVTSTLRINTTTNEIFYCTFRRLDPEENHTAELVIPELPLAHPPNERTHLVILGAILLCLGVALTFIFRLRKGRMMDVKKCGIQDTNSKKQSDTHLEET

Data set [3] deals with T1, PD-1/PD-L1 interaction. Briefly: IL-2 production by PHA/PMA-activated Jurkat T cells co-cultured with recombinant human PD-L1 Fc (IL-2 ELISA). Type of data set: cell-based. On the set-up: Fc; host or cells: Jurkat T cells (PD-1 side). As to conditions: 1-10 μg/ml peptide, PD-L1 Fc 8 μg/ml, 37° C. for 48 hours; FIG. 2. On the procedure:
5×10^4 Jurkat T cells were activated with 1 μg/ml of phytohemagglutinin (PHA) and 50 ng/ml of phorbol 12-myristate 13-acetate (PMA) and co-cultured with recombinant human PD-L1 Fc (8 μg/ml) plus 1-10 μg/ml of WT (FIG. 2A), 1-10 μg/ml of TF (FIG. 2B), or 1-10 μg/ml of combined WT and TF (FIG. 2C) peptide at 37° C. for 48 hours. Cell culture supernatant was harvested and interleukin-2 (IL-2) production from Jurkat T cells was assessed by IL-2 ELISA. The numbers shown above each bar in FIG. 2 represent IL-2 concentrations.
Target sequence in this assay (Q9NZQ7 19-238 limits assumed): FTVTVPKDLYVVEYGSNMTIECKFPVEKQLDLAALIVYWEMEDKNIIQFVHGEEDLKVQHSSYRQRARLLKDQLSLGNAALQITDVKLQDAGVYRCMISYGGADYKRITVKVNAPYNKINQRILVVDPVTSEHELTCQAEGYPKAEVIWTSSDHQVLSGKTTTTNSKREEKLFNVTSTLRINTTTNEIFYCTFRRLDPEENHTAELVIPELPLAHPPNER

Data set [4] deals with T2, human PD-L1 (PD-1/PD-L1 interaction) (Homo sapiens, UniProt Q9NZQ7).
T2 construct: Fc
In words: Competition ELISA: peptide blocking of recombinant human PD-1 Fc binding to plate-coated human PD-L1 Fc. Particulars: peptide 0.008 μg/ml to 10 μg/ml, human PD-1 Fc 10 ng/ml; FIG. 1. On the procedure:
The binding of the WT or TF peptide to human PD-L1 was tested via competition ELISA. Varying concentrations of each peptide (0.008 μg/ml to 10 μg/ml) were mixed with a fixed concentration of recombinant human PD-1 Fc (10 ng/ml) and bound to a human PD-L1 Fc coated 96-well Immuno Maxisorp flat bottom plate. Binding was detected via a biotinylated anti-PD-1 antibody, streptavidin-horseradish peroxidase (HRP), and 3,3′,5,5′-Tetramethylbenzidine (TMB) substrate. Absorbance measurements were collected at 450 nm via a plate reader. The absorbance readings were plotted against the test peptide concentration.
More particularly, in this Example and referring to FIGS. 5A and 5B, WT represents SEQ ID NO:1; TF represents SEQ ID NO:2; ET represents SEQ ID NO:25; YT represents SEQ ID NO:28; and TW represents the reverse sequence of WT with D-amino acids, SEQ ID NO:34 (also referred to herein as “D-TW”). Different combination of such PD-L1 blocking peptides (3 and 10 μM) were mixed with recombinant human PD-1 Fc and bound to a human PD-L1 Fc coated 96-well Immuno Maxisorp flat bottom plate. Binding was detected via a biotinylated anti-PD-1 antibody, streptavidin-horseradish peroxidase (HRP), and 3,3′,5,5′-Tetramethylbenzidine (TMB) substrate. Absorbance measurements were collected at 450 nm via a plate reader. […]

T2 sequence (Q9NZQ7 19-238 limits assumed): as above

Consider `CSCC[C@@H](NC(=O)[C@@H](CO)NC(=O)[C@H]1CCCN1C(=O)[C@@H](CO)NC(=O)[C@@H](CC(N)=O)NC(=O)[C@@H](CCC(N)=O)NC(=O)[C@H](N)[C@H](C)O)C(=O)N[C@H](CCCNC(=N)N)C(=O)N[C@H](Cc1ccc(O)cc1)C(=O)N[C@H](Cc1c[nH]c2ccccc12)C(=O)O` [D-TW, TQNSPSMRYW], for which, in data set [1], the toxicity to mice entry is “generally non-toxic”.

On to TAHPSPSPRSAGQF [TF], for which, in data set [2], the IL-2 concentration entry is reported as “yielded an increase in IL-2 concentration” and the “blocking of PD-1/PD-L1 interaction (summary of the foregoing assay results)” value is recorded as “able to block PD-1/PD-L1 interaction”. Besides, the IL-2 concentration result in data set [3] is recorded as “yielded an increase in IL-2 concentration”. Moreover, in data set [4], the “percent (%) inhibition of PD-1/PD-L1 interaction” value is “the percent (%) inhibition increased”.

For the compound WYRMSPSNQT [WT], in data set [2], the IL-2 concentration entry is “yielded an increase in IL-2 concentration” and the “blocking of PD-1/PD-L1 interaction (summary of the foregoing assay results)” value is recorded as “able to block PD-1/PD-L1 interaction”. In data set [4], the “percent (%) inhibition of PD-1/PD-L1 interaction” value was “the percent (%) inhibition increased”.
